Target: protein-base BG505 trimer (BG505 DS-SOSIP-2G-3Mut-RnS7Mut) (HIV-1 (BG505)) (UniProt Q2N0S6)
Experiment: SPR; 2G12 antibody immobilised on a CM5 chip (about 2,000 RU), HIV trimer loaded onto it; sCD4 injected at five concentrations (30-500 nM), single cycle, 50 uL/min; 10 mM HEPES pH 7.4, 150 mM NaCl, 3 mM EDTA, 0.05% P-20; Biacore T-200

Substance: soluble construct of CD4 containing the first two domains (sCD4) (domain or fragment)
- Kd: 1200 nM

Source: publication PMC10404741
